Assay results as given in PMC10570711, “Tetramerization of upstream stimulating factor USF2 requires the elongated bent leucine zipper of the bHLH-LZ domain” (The Journal of Biological Chemistry, 2023).
Substitutions are numbered along the chain they refer to. Numbers in names are those of the source.

Legend:
[1] = target: T1, MBP-USF2_WT (human, UniProt Q15853 235-346); experiment: fluorescence polarisation; fluorescence anisotropy; 10 nM 5IAF-labelled USF2_WT, MBP-USF2 proteins titrated 0-6 μM; 20 mM Tris 8.0, 50 mM KCl, 2 mM MgCl2, 0.5% glycerol; 4 °C overnight; apparent; dimer to monomers; details: both partners purified
T1 construct: Upstream stimulating factor 2 (USF2), human, isoform 1, residues 235-346 (bHLH-LZ-Ext domain); Built in a pHis-MBP-TEV vector; a TEV site lies between the tag and USF2; also called 6×HisMBP-USF2_WT; source: E. coli Rosetta (DE3), purified (Ni-HiTrap, Superdex 75); not shown: His6, N-terminal, kept; MBP, N-terminal, kept

[2] = target: T2, MBP-USF2 R248A (Homo sapiens, UniProt Q15853 235-346, R248A); experiment: fluorescence anisotropy; FA: 20 nM FAM-DNA, 20 mM Tris pH 8.0, 50 mM KCl, 2 mM MgCl2, 0.5% glycerol, 4 C, 3 h; EMSA: 100 nM Cy3-DNA, 10 mM Tris pH 8.0, 50 mM KCl, 1 mM DTT, 2 mM MgCl2; details: protein: recombinant; tags: 6xHis-MBP N-terminal; chain copies: 2; label: 5'-FAM on strand 1; blunt as printed if S3 is read 3'-5' (printed with 5'-3' labels)
T2 sequence: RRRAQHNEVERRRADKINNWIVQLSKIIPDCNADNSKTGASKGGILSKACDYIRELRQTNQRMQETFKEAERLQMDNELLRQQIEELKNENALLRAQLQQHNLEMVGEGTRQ

[3] = target: T3, MBP-USF2 E244A (Homo sapiens, UniProt Q15853 235-346, E244A); experiment: as above; details: protein: recombinant; tags: 6xHis-MBP N-terminal; chain copies: 2; label: 5'-FAM on strand 1; blunt as printed if S3 is read 3'-5' (printed with 5'-3' labels)
T3 sequence: T2 sequence with E10A, A14R

[4] = target: T4, MBP-USF2 R247A (Homo sapiens, UniProt Q15853 235-346, R247A); experiment: as above; details: protein: recombinant; tags: 6xHis-MBP N-terminal; chain copies: 2; label: 5'-FAM on strand 1; blunt as printed if S3 is read 3'-5' (printed with 5'-3' labels)
T4 sequence: T2 sequence with R13A, A14R

[5] = target: T5, MBP-USF2 E244K (Homo sapiens, UniProt Q15853 235-346, E244K); experiment: as above; details: protein: recombinant; tags: 6xHis-MBP N-terminal; chain copies: 2; label: 5'-FAM on strand 1; blunt as printed if S3 is read 3'-5' (printed with 5'-3' labels)
T5 sequence: T2 sequence with E10K, A14R

[6] = target: MBP-USF2 H240A (Homo sapiens, UniProt Q15853 235-346, H240A); experiment: as above; details: protein: recombinant; tags: 6xHis-MBP N-terminal; chain copies: 2; label: 5'-FAM on strand 1; blunt as printed if S3 is read 3'-5' (printed with 5'-3' labels)
MBP-USF2 H240A, sequence (Q15853 235-346 H240A): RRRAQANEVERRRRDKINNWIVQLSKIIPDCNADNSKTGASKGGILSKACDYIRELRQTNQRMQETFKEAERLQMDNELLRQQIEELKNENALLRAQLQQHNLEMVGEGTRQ

[7] = target: MBP-USF2_ΔLZ-Ext (Homo sapiens, UniProt Q15853 235-292); experiment: as above; details: protein: recombinant; tags: 6xHis-MBP N-terminal; chain copies: 2; label: 5'-FAM on strand 1; blunt as printed if S3 is read 3'-5' (printed with 5'-3' labels)
[8] = target: USF2_Q334K (Homo sapiens, UniProt Q15853 235-346, Q334K); experiment: fluorescence anisotropy; similar to USF2_WT; FA: 20 nM FAM-DNA, 20 mM Tris pH 8.0, 50 mM KCl, 2 mM MgCl2, 0.5% glycerol, 4 C, 3 h; EMSA: 100 nM Cy3-DNA, 10 mM Tris pH 8.0, 50 mM KCl, 1 mM DTT, 2 mM MgCl2; details: protein: recombinant; chain copies: 2; label: 5'-FAM on strand 1; blunt as printed if S3 is read 3'-5' (printed with 5'-3' labels)
USF2_Q334K, sequence (Q15853 235-346 Q334K): as the sequence (Q15853 235-346 H240A) above, with A6H, Q100K counted along it

[9] = target: the molecule itself; experiment: dynamic light scattering; USF2_bHLH-LZ-ext-DNA complexes, 400 μM sample; 100 mM KCl, 10 mM Hepes pH 7.5
[10] = target: the molecule itself; experiment: SEC-MALS; 700 μM protein mixed with 350 μM E-box DNA, overnight at 4 °C; Superdex 75 Increase; 20 mM Hepes pH 7.5, 100 mM KCl, 10 mM DTT; 0.5 ml/min; the constant is of tetramer to dimers
[11] = target: the molecule itself; experiment: crystal structure; USF2 235-346 cocrystallised with 18 bp double-stranded E-box DNA; sitting drop, 18 °C, 0.1 M Tris pH 7.0, 20% PEG4000; 3.5 Å; four protein chains in the asymmetric unit

B1: 5IAF-labelled USF2_WT (5IAFUSF2_WT; labelled CGG-USF2_WT) (domain or fragment, human)
chain: CGGRRRAQHNEVERRRRDKINNWIVQLSKIIPDCNADNSKTGASKGGILSKACDYIRELRQTNQRMQETFKEAERLQMDNELLRQQIEELKNENALLRAQLQQHNLEMVGEGTRQ
modifications: 5-iodoacetamido-fluorescein (5-IAF) on the sulfhydryl cysteine end of CGG-USF2_WT
notes: CGG added before USF2 for labelling with 5-IAF (construct MBP-CGG-USF2_WT); Upstream stimulating factor 2 (USF2), human, isoform 1, residues 235-346 (bHLH-LZ-Ext domain); Made from MBP-CGG-USF2_WT by TEV cleavage of the His-MBP tag; also called 5IAF labeled USF2_WT; source: E. coli Rosetta (DE3), purified (Ni-HiTrap, TEV cleavage, HiTrap SP, S75), labelled with 5-IAF; not shown: His6, N-terminal, …
- Kd [1]: 100 ± 19 nM

B2: FAM E-box DNA (dsDNA)
DNA 1: GACGGGCACGTGACGCGC
DNA 2: GCGCGTCACGTGCCCGTC
- Kd [2]: 460 ± 79 nM
- Kd [3]: 72 ± 23 nM
- Kd [4]: 250 ± 67 nM
- Kd [5]: 290 ± 98 nM
- Kd [6]: 210 ± 43 nM
- binding signal [7]: > 20 fold decrease vs USF2_WT
- binding result [8]: binds

B3: USF2_bHLH-LZ-Ext (human USF2 isoform 1, residues 235-346) (domain or fragment, UniProt Q15853 235-346, looked up)
chain: T2 sequence with A14R
notes: Upstream stimulating factor 2 (USF2), human, isoform 1, residues 235-346 (basic region to the C terminus; bHLH-LZ-Ext); In the crystal, SEC-MALS and DLS experiments the protein was in complex with 18 bp E-box DNA; His-MBP tag removed with TEV protease; also called USF2_WT; bHLH-LZ-Ext domain of USF2; source: E. coli Rosetta (DE3), purified (Ni-HiTrap, Superdex 75; TEV cleavage, HiTrap SP, S75); …
- stoichiometry N [9]: 4
- Kd [10]: ~800000 nM
- stoichiometry N [11]: 2

B4: USF2_E312R_E320R (bHLH-LZ-Ext domain, residues 235-346, double mutant) (domain or fragment, human, UniProt Q15853 235-346, looked up)
chain: T2 sequence with A14R, E78R, E86R
notes: Upstream stimulating factor 2 (USF2), human, isoform 1, residues 235-346 (bHLH-LZ-Ext domain) with E312R and E320R; Generated on the construct MBP-USF2_WT; also called E312R/E320R double mutation; tetramer interface mutant; source: E. coli Rosetta (DE3), purified (Ni-HiTrap, Superdex 75)
- stoichiometry N [10]: 2
